Our source for the 吸光值 (405nm), fold decrease of high-end antibody activity (against the original antibody / fusion protein) and 最高吸光值 (405nm) values is patent CN113621079A.

Assay [1] has as its target CA724 胃癌抗原 (B72.3抗原). The assay is described as follows: direct ELISA, antigen coated at 100 ng/mL, pNPP substrate read through the fused AP; still in linear range, no plateau. (In an ELISA, binding on a coated surface is turned into a signal by an enzyme label.)
Assay [2] concerns the target CA724 胃癌抗原 (B72.3抗原). The assay is described as follows: ELISA, antigen coated at 100 ng/mL, HRP goat anti-mouse Fab secondary, OD450.
Assay [3] addresses CA724 胃癌抗原 (B72.3抗原). The assay is described as follows: direct ELISA, antigen coated at 100 ng/mL, pNPP substrate read through the attached ALP; plateau value.

Fab抗体与碱性磷酸酶融合蛋白(Fab)2-AP (CA724-B72.3 Fab fused to calf intestinal alkaline phosphatase, Fab:AP monomer 1:1), sequence (light, form in doubt): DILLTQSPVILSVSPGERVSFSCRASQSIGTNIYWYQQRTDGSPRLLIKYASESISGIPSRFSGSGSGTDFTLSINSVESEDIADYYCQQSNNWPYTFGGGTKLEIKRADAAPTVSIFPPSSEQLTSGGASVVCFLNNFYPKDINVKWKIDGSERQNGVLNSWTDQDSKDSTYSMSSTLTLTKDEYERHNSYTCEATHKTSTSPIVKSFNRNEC

With “Fab抗体与碱性磷酸酶融合蛋白(Fab)2-AP (CA724-B72.3 Fab fused to calf intestinal alkaline phosphatase, Fab:AP monomer 1:1)”, the 吸光值 (405nm) in assay [1] amounted to 1.2 OD405.
For the substance “对照抗体化学标记ALP蛋白 (CA724-B72.3 antibody chemically labelled with alkaline phosphatase)”, in assay [2], the fold decrease of high-end antibody activity (against the original antibody / fusion protein) was 1 倍. This substance displayed a 最高吸光值 (405nm) in assay [3] of 0.8 OD405.
